This passage reports percent of parent results from paper PMC3887213 (2013).

To fix the notation:
B1: LRRK2 RocCOR tandem domain (LexA-BD bait, wild type) [human] / itself (parent complex)
chain: KAVPYNRMKLMIVGNTGSGKTTLLQQLMKTKKSDLGMQSATVGIDVKDWPIQIRDKRKRDLVLNVWDFAGREEFYSTHPHFMTQRALYLAVYDLSKGQAEVDAMKPWLFNIKARASSSPVILVGTHLDVSDEKQRKACMSKITKELLNKRGFPAIRDYHFVNATEESDALAKLRKTIINESLNFKIRDQLVVGQLIPDCYVELEKIILSERKNVPIEFPVIDRKRLLQLVRENQLQLDENELPHAVHFLNESGVLLHFQDPALQLSDLYFVEPKWLCKIMAQILTVKVEGCPKHPKGIISRRDVEKFLSKKRKFPKNYMSQYFKLLEKFQIALPIGEEYLLVPSSLSDHRPVIELPHCENSEIIIRLYEMPYFPMGFWSRLINRLLEISPYMLSGRERALRPNRMYWRQGIYL

Variants of B1 are the subject of the assay. In words: quantitative yeast two-hybrid (Q-YTH); n = 6; read off a plot.
In the case of KAVPYNRMKLMIVGNDGSGKTTLLQQLMKTKKSDLGMQSATVGIDVKDWPIQIRDKRKRDLVLNVWDFAGREEFYSTHPHFMTQRALYLAVYDLSKGQAEVDAMKPWLFNIKARASSSPVILVGTHLDVSDEKQRKACMSKITKELLNKRGFPAIRDYHFVNATEESDALAKLRKTIINESLNFKIRDQLVVGQLIPDCYVELEKIILSERKNVPIEFPVIDRKRLLQLVRENQLQLDENELPHAVHFLNESGVLLHFQDPALQLSDLYFVEPKWLCKIMAQILTVKVEGCPKHPKGIISRRDVEKFLSKKRKFPKNYMSQYFKLLEKFQIALPIGEEYLLVPSSLSDHRPVIELPHCENSEIIIRLYEMPYFPMGFWSRLINRLLEISPYMLSGRERALRPNRMYWRQGIYL [chain 1 T16D], the percent of parent was roughly 97%.
For KAVPYNRMKLMIVGNAGSGKTTLLQQLMKTKKSDLGMQSATVGIDVKDWPIQIRDKRKRDLVLNVWDFAGREEFYSTHPHFMTQRALYLAVYDLSKGQAEVDAMKPWLFNIKARASSSPVILVGTHLDVSDEKQRKACMSKITKELLNKRGFPAIRDYHFVNATEESDALAKLRKTIINESLNFKIRDQLVVGQLIPDCYVELEKIILSERKNVPIEFPVIDRKRLLQLVRENQLQLDENELPHAVHFLNESGVLLHFQDPALQLSDLYFVEPKWLCKIMAQILTVKVEGCPKHPKGIISRRDVEKFLSKKRKFPKNYMSQYFKLLEKFQIALPIGEEYLLVPSSLSDHRPVIELPHCENSEIIIRLYEMPYFPMGFWSRLINRLLEISPYMLSGRERALRPNRMYWRQGIYL [chain 1 T16A] the value was roughly 93%; for KAVPYNRMKLMIVGNTGSGKTTLLQQLMKTKKSDLGMQSATVGIDVKDWPIQIRDKRKRDLVLNVWDFAGREEFYSTHPHFMTQRALYLAVYDLSKGQAEVDAMKPWLFNIKARASSSPVILVGTHLDVSDEKQRKACMSKITKELLNKRGFPAIRDYHFVNAAEESDALAKLRKTIINESLNFKIRDQLVVGQLIPDCYVELEKIILSERKNVPIEFPVIDRKRLLQLVRENQLQLDENELPHAVHFLNESGVLLHFQDPALQLSDLYFVEPKWLCKIMAQILTVKVEGCPKHPKGIISRRDVEKFLSKKRKFPKNYMSQYFKLLEKFQIALPIGEEYLLVPSSLSDHRPVIELPHCENSEIIIRLYEMPYFPMGFWSRLINRLLEISPYMLSGRERALRPNRMYWRQGIYL [chain 1 T164A], roughly 110%; for KAVPYNRMKLMIVGNTGSGKTTLLQQLMKTKKSDLGMQSATVGIDVKDWPIQIRDKRKRDLVLNVWDFAGREEFYSTHPHFMTQRALYLAVYDLSKGQAEVDAMKPWLFNIKARASSSPVILVGTHLDVSDEKQRKACMSKITKELLNKRGFPAIRDYHFVNADEESDALAKLRKTIINESLNFKIRDQLVVGQLIPDCYVELEKIILSERKNVPIEFPVIDRKRLLQLVRENQLQLDENELPHAVHFLNESGVLLHFQDPALQLSDLYFVEPKWLCKIMAQILTVKVEGCPKHPKGIISRRDVEKFLSKKRKFPKNYMSQYFKLLEKFQIALPIGEEYLLVPSSLSDHRPVIELPHCENSEIIIRLYEMPYFPMGFWSRLINRLLEISPYMLSGRERALRPNRMYWRQGIYL [chain 1 T164D], roughly 98%.
